# Laboratory results: the RNAGym collection of RNA variant scans (doi:10.7554/elife.80360)
# B1: CPEB3 Ribozyme (parent)
# chain: GGGGGCCACAGCAGAAGCGUUCACGUCGCGGCCCCUGUCAGAUUCUGGUGAAUCUGCGAAUUCUGCUGU
# Variants of: B1
# Experiment: self-cleavage, relative activity (ratio to wild type); higher = more cleavage; co-transcriptional
row,Variant,self-cleavage
1,G5A U46C,0.945
2,G5A A40C,0.213
3,G5A A40G,0.866
4,G5C U61C,0.13
5,G5C U61A,0.193
6,G5C U61G,0.153
7,G4U G31C,0.0584
8,G4U G31U,0.126
9,G5U A40C,0.088
10,G5C G41A,0.194
11,G5C G41U,0.186
12,G5C G41C,0.188
13,G5A U20G,0.111
14,G5A U20C,0.109
15,G5C C35A,0.0866
16,G4U G25A,0.101
17,G4U G25C,0.116
18,G4U G25U,0.0695
19,G5C C54U,0.219
20,G5C C54G,0.143
21,G4U U62G,0.349
22,G4U U62C,0.369
23,G5U A51C,0.187
24,G5A G19A,0.12

row,Variant,self-cleavage
1,G5A G19C,0.0992
2,G4U U53A,0.412
3,G4U U53G,0.226
4,G4U U53C,0.323
5,G5C G68A,0.473
6,G5C G68C,0.317
7,G5C G68U,0.483
8,G5A C35A,0.203
9,G5A C35G,0.134
10,G5A C35U,0.365
11,G5A A23U,0.931
12,G5A C22U,0.129
13,G5A C22G,0.0902
14,G4U U43A,0.455
15,G4U U43G,0.389
16,G5A A59C,0.259
17,G5A A59G,0.753
18,G5C C32G,0.968
19,G5U A10G,0.543
20,G5U A10U,0.581
21,G5U A10C,0.604
22,G5C C63G,0.109
23,G5C C63U,0.207
24,G5C C63A,0.119

row,Variant,self-cleavage
1,G5C G56A,0.158
2,G5A U21A,0.837
3,G5A U21C,0.56
4,G5A G11C,0.578
5,G5A G11U,0.778
6,G5A G65C,0.532
7,G5A G65A,0.812
8,G5C G14U,0.109
9,G4U U38C,0.525
10,G4U U38A,0.73
11,G5A A52G,0.92
12,G5A A52C,0.837
13,G5A A52U,0.891
14,G5C U67A,0.338
15,G5C U67G,0.355
16,G5C U67C,0.254
17,G5A C66A,0.727
18,G5A C66G,0.826
19,G5C C12A,0.141
20,G4U G41C,0.126
21,G4U U46C,0.751
22,G4U U46A,0.746
23,G4U U46G,0.803
24,G5C C24G,0.0631

row,Variant,self-cleavage
1,G5C C24U,0.112
2,G5C C66U,0.151
3,G5A G56U,0.772
4,G5A G56A,0.759
5,G5A G56C,0.407
6,G5A G58C,0.758
7,G5A G58A,0.723
8,G5A G58U,0.906
9,G5A C45G,0.823
10,G5A C45U,0.913
11,G5A C45A,0.832
12,G5A U53G,0.335
13,G5C G31U,0.143
14,G5A G37C,0.171
15,G5A G37U,0.165
16,G5C C57A,0.0507
17,G5C C57G,0.098
18,G5A G50A,0.941
19,G5A G50C,0.902
20,G5A G14A,0.325
21,G5A G14C,0.159
22,G5A G14U,0.365
23,G5A U67G,0.957
24,G5A U67C,0.963

row,Variant,self-cleavage
1,G5C G28C,0.0894
2,G5C G28U,0.0856
3,G5A G30U,0.125
4,G4U G65A,0.521
5,G5A C12A,0.532
6,G5A C12G,0.488
7,G5C A59G,0.229
8,G5C G48A,0.217
9,G5C U64C,0.262
10,G5C U64A,0.246
11,G5C U64G,0.105
12,G5A U55A,0.69
13,G5A U55C,0.403
14,G5A G68A,0.976
15,G5A G68U,0.948
16,G5A G68C,0.947
17,G4U G28C,0.0704
18,G5A C29A,0.229
19,G5A C29U,0.303
20,G5A A16G,0.811
21,G5A A16U,0.639
22,G5C U20G,0.0813
23,G4U U61C,0.174
24,G5C U36A,0.0886

row,Variant,self-cleavage
1,G5C U36C,0.244
2,G5C U36G,0.458
3,G5U A8G,0.228
4,G5U A8C,0.346
5,G4U G48A,0.856
6,G5A C34G,0.155
7,G4U G47C,0.793
8,G4U G47U,0.873
9,G4U G47A,0.804
10,G5A C9A,1.01
11,G5C A10C,0.176
12,G5C A10G,0.289
13,G5A C54U,0.893
14,G5A C54A,0.546
15,G5A C54G,0.394
16,G5A C33A,0.296
17,G5A C33G,0.136
18,G5C U21C,0.149
19,G5C U21G,0.114
20,G5C U21A,0.134
21,G5C A40C,0.213
22,G5C A40G,0.171
23,G5A U61A,0.351
24,G5A U61C,0.299

row,Variant,self-cleavage
1,G5A U61G,0.468
2,G5A U26A,0.498
3,G5A U26G,0.611
4,G5A U26C,0.853
5,G5C C6G,0.0983
6,G5A G48A,0.918
7,G5A C18U,0.483
8,G5A C18G,0.0833
9,G5A U36A,0.146
10,G4U U67A,0.9
11,G4U U67C,0.946
12,G4U U64G,0.589
13,G4U U64A,0.535
14,G4U U64C,0.602
15,G5C G50A,0.202
16,G5C G50C,0.182
17,G5C A42U,0.265
18,G5C A42C,0.207
19,G5U A16G,0.14
20,G5U A16U,0.127
21,G4U G30C,0.108
22,G4U G30U,0.103
23,G5C C27U,0.138
24,G4U G68U,0.928

row,Variant,self-cleavage
1,G4U U36C,0.651
2,G4U U36G,0.492
3,G4U U36A,0.122
4,G5C U26G,0.228
5,G5C U26A,0.156
6,G5A C39G,0.752
7,G5A C39A,0.533
8,G5C G19U,0.121
9,G5C G19A,0.126
10,G5C G58U,0.207
11,G5C C7G,0.293
12,G5C C7A,0.684
13,G5A C7G,0.0847
14,G5A C7U,0.501
15,G5A C7A,0.134
16,G5A U49A,0.926
17,G5C A8U,0.156
18,G5C A8C,0.199
19,G5C A8G,0.242
20,G5A U43C,0.77
21,G5A U43A,0.721
22,G5A U43G,0.578
23,G5A A60G,0.515
24,G5A A60C,0.251

row,Variant,self-cleavage
1,G5A A60U,0.247
2,G5C G47A,0.201
3,G5C G47U,0.289
4,G5C G47C,0.246
5,G5A C24G,0.0961
6,G5A C24U,0.378
7,G5A C24A,0.341
8,G5U A23C,0.211
9,G5U A23G,0.253
10,G5U A23U,0.402
11,G5A A51G,0.849
12,G5A A51C,0.82
13,G5A A51U,0.859
14,G5A U44A,0.655
15,G5A U44C,0.858
16,G5A U44G,0.631
17,G5C G37U,0.179
18,G5C G37A,0.119
19,G5C G37C,0.103
20,G5A G17U,0.152
21,G5C C29U,0.133
22,G5C C29A,0.144
23,G5A C6A,0.103
24,G5A C6U,0.189

row,Variant,self-cleavage
1,G5A A15U,0.355
2,G5A A15C,0.263
3,G5A C27U,0.201
4,G5A C27A,0.141
5,G5A C27G,0.104
6,G5C C34A,0.268
7,G5C C34G,0.22
8,G5C C34U,0.3
9,G5A C57G,0.234
10,G5A C57U,0.304
11,G5A C57A,0.224
12,G5C G25U,0.0626
13,G5C G25C,0.0981
14,G5U A13U,0.139
15,G5U A13G,0.271
16,G5A G41C,0.359
17,G5A G41A,0.512
18,G5A G41U,0.488
19,G4U G50A,0.752
20,G5C C39G,0.199
21,G5C C39A,0.134
22,G5C C39U,0.184
23,G5C C33G,0.227
24,G5C C33A,0.302

row,Variant,self-cleavage
1,G5C A23U,0.333
2,G5C A23C,0.228
3,G5C A23G,0.144
4,G4U G19U,0.112
5,G5A G28A,0.1
6,G5A G28U,0.144
7,G5A G28C,0.124
8,G5C U69A,0.307
9,G5C U69G,0.437
10,G5A G25C,0.137
11,G5A G25U,0.0968
12,G5A G25A,0.114
13,G5C C22G,0.0735
14,G5C C22U,0.0752
15,G5C A51C,0.152
16,G5C A51U,0.269
17,G5C A51G,0.228
18,G5C G11U,0.108
19,G5C U55A,0.192
20,G4U U55A,0.496
21,G4U U55C,0.298
22,G4U U55G,0.203
23,G5A U62C,0.423
24,G4U U44G,0.384

row,Variant,self-cleavage
1,G4U U44C,0.552
2,G5C C9G,0.487
3,G5C C9A,0.386
4,G5C C9U,0.412
5,G5C C18G,0.12
6,G5C C18U,0.148
7,G5C C18A,0.097
8,G4U U21A,0.654
9,G4U U21C,0.4
10,G5C U38G,0.0921
11,G5C G30A,0.177
12,G5C G30C,0.124
13,G5C G30U,0.0983
14,G5A U38G,0.129
15,G5A U38C,0.749
16,G5A U38A,0.816
17,G5A A8C,0.953
18,G5A A8G,0.725
19,G5A A8U,0.894
20,G4U U69A,0.952
21,G4U U20C,0.14
22,G4U U20A,0.121
23,G4U U20G,0.0683
24,G5A C32A,0.847

row,Variant,self-cleavage
1,G5C C45G,0.178
2,G5C C45U,0.266
3,G4U G37C,0.169
4,G4U G37A,0.144
5,G5A C63A,0.427
6,G5A C63U,0.915
7,G4U G58C,0.457
8,G4U G58A,0.377
9,G5A A42G,0.812
10,G5A A42U,0.71
11,G4U U26G,0.3
12,G5A A10G,0.915
13,G5A A10C,0.914
14,G5A A10U,0.953
15,G5C U62A,0.169
16,G5A G31U,0.221
17,G5A G31A,0.158
18,G5A G31C,0.118
19,G5A U64C,0.676
20,G5A U64A,0.71
21,G5A U64G,0.729
22,G5A A13C,0.637
23,G5C A52G,0.287
24,G5C A52C,0.259

row,Variant,self-cleavage
1,G5C A52U,0.123
2,G5A G47A,0.964
3,G5A G47C,0.914
4,G5U A42U,0.118
5,G5U A42C,0.0793
6,G5U A42G,0.343
7,G5C G65C,0.106
8,G5C G65U,0.0855
9,G5C G65A,0.158
10,G5A U69A,0.994
11,G5A U69G,1.03
12,G5A U69C,1.05
13,G4U U49G,0.357
14,G5C U43C,0.173
15,G5C U43G,0.219
16,G5C U44C,0.179
17,G5C U46C,0.267
18,G5C U46A,0.265
19,G4U G56U,0.559
20,G4U G56C,0.339
21,G5C G17C,0.0976
22,G5C G17A,0.0588
